Laboratory results from patent US20250011368A1, “DLL3 TARGETING PEPTIDES AND CONSTRUCTS THEREOF” (MARIANA ONCOLOGY INC., priority 2023, published 2025).
Numbered stars: 1 amine (or outer) side, 2 acyl side, 3 side chain; on linkers, the order of the positions; unused ones are H or OH. Bridge positions count the residues as written; N and C are the ends. Square brackets hold non-standard residues; d marks the D form. Peptide text beside a SMILES is read from it. * marks the point of attachment. DOTA = O=C(O)CN1CCN(CC(=O)O)CCN(CC(=O)*)CCN(CC(=O)O)CC1; Phe(4-CF3) = N[C@@H](Cc1ccc(C(F)(F)F)cc1)C(=O)O; Trp(5-F) = N[C@@H](Cc1c[nH]c2ccc(F)cc12)C(=O)O; Trp(7-aza) = N[C@@H](Cc1c[nH]c2ncccc12)C(=O)O; Pro(trans-4-F) = O=C(O)[C@@H]1C[C@@H](F)CN1; 2Nal = N[C@@H](Cc1ccc2ccccc2c1)C(=O)O; Nva(3-Et) = CCC(CC)[C@H](N)C(=O)O; CH2 = C([*:1])[*:2]

T1: human DLL3 (Homo sapiens, UniProt Q9NYJ7)
T1 sequence (Q9NYJ7 27-618): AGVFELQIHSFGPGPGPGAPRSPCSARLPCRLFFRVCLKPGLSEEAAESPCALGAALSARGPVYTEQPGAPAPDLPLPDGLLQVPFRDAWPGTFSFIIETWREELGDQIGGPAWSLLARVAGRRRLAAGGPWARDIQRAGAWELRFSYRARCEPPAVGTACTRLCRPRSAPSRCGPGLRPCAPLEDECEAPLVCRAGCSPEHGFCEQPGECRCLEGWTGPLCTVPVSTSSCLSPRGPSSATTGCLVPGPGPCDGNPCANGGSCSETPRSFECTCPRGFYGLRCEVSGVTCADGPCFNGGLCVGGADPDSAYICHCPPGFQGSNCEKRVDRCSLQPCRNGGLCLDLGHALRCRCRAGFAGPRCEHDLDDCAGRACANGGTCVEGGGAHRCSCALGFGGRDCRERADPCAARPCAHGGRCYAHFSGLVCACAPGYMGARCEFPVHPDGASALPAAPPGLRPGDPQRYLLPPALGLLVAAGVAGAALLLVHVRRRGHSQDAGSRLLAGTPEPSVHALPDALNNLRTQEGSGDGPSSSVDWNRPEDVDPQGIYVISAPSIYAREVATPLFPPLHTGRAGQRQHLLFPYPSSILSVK

T2: DLL3 on SHP-77 cells (human, UniProt Q9NYJ7 27-618)
T2 construct: SHP-77 cells are human-derived, non-engineered SCLC cells
T2 sequence: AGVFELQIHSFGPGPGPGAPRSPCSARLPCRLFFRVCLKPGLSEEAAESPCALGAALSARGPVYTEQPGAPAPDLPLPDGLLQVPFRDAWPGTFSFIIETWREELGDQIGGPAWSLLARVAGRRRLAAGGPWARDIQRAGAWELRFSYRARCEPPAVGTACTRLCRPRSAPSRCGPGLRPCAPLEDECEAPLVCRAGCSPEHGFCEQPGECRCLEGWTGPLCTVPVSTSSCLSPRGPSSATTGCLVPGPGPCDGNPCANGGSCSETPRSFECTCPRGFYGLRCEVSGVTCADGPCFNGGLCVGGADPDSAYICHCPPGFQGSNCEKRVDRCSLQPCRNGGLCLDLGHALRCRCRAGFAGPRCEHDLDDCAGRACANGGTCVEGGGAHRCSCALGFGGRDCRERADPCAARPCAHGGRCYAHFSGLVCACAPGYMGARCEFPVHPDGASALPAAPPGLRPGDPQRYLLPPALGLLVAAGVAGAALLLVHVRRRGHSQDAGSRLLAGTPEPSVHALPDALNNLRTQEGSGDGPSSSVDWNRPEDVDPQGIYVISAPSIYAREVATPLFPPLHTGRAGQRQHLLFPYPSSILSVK

T3: DLL3 on CT26.DLL3 cells (Homo sapiens (Human), UniProt Q9NYJ7 27-618)
T3 construct: CT26.DLL3 are engineered cells to express DLL3
T3 sequence: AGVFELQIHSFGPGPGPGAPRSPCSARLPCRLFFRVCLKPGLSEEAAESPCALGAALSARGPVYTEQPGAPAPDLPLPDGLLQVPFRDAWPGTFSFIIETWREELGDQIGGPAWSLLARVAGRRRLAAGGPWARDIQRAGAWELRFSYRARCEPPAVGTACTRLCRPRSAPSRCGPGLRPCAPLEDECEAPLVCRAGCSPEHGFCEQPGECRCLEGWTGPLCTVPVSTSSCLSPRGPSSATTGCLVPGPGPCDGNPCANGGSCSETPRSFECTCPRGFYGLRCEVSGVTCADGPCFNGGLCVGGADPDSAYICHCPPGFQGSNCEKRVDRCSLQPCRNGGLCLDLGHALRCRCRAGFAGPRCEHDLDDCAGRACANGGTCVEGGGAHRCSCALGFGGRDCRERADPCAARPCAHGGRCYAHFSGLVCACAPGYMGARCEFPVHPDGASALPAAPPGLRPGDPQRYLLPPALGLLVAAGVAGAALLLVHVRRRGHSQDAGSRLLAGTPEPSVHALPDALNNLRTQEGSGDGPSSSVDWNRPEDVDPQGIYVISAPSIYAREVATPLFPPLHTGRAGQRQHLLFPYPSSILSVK


Assays:
[1] = target: T1, human DLL3; assay: Affinity determination by Surface Plasmon Resonance (SPR); type: binding; settings: 25° C., biotinylated human DLL3 immobilized on streptavidin sensor chip, 1:1 binding model; read-out: SPR KD
Outline: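 Kinetic and affinity constants were derived by fitting sensorgrams to a 1:1 binding model. Graded compound concentrations flowed at 100 μL/minute in 20 mM phosphate running buffer with 2% DMSO over streptavidin-immobilized biotinylated human DLL3, reference-subtracted.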

[2] = tested on: SHP-77 cells; assay: Cell binding (total uptake) of [177Lu]Lu-test peptide, SHP-77 cells; type: cell-based; settings: SHP77 cells, 1 hour at 37° C., bound fraction
Protocol: [^177Lu]LuCl3 was received from venders in HCl solution. For every mCi of [^177Lu]LuCl3 added to the reaction vial (1.5 mL Eppendorf vial), ammonium acetate buffer (0.2 M, pH 4.9, 100 μL, containing 1% w/v ascorbic acid and 6% v/v ethanol) and peptide conjugate (1 nmol). A peptide conjugate of the present disclosure is also referred to herein as a “chelator-peptide”. The pH of the solution was determined to be approximately 5 by using pH strips. The reaction vial was incubated at 80° C., 700 RPM for 17-20 minutes. A sample from the reaction was analyzed by RP-HPLC using an Agilent Infinity II 1260 HPLC to determine reaction completion and radiochemical purity of [^177Lu]Lu-chelator-peptide. HPLC conditions: Waters XBridge BEH C18 Column, 130 Å, 3.5 um, 4.6 mm×250 mm; mobile phase: Solvent A=water (with 0.1% formic acid), solvent B=acetonitrile (with 0.1% formic acid). Gradients: 25-45% B in 10 minutes, 45-65% B in 12 minutes, 65-90% in 6 minutes at a flow rate of 0.5 mL/minute. Required amounts of the product was formulated in 1% PBSA for cell studies.
(§1) The study was conducted using SHP-77, CT26.WT, and CT26.DLL3 cells (Table 7) Adherent cell studies: The cells were cultured in appropriate culture media (20 mL) in tissue culture treated T150 flasks at 37° C. and 5% CO2. Adherent cells were detached (60-70% confluent) using 5 mL Versene at 37° C. for 3 minutes. After confirming the viability using countess and count of detached cells using Trypan blue, the cells were centrifuged at 4° C. for 5 minutes (1,000 rpm). The cell pellet obtained was washed once with PBS and resuspended in 1% PBSA to obtain the desired cell concentration (5-25 million cells/mL).
Suspension cell studies: The cells were cultured in appropriate culture media (20 mL) in tissue culture treated T150 flasks at 37° C. and 5% CO2. After confirming the viability and count of detached cells using Trypan blue, the cells were centrifuged at 4° C. for 5 minutes (1,000 rpm). The cell pellet obtained was washed once with PBS and resuspended in 1% PBSA to obtain the desired cell concentration (5-25 million cells/mL).
Cell numbers used for the assay were in the range of 5 million cells/condition −25 million cells/condition.
Total uptake: Cells were incubated with 300 μL (0.8 μCi) of the incubation buffer (containing radiolabeled peptide [^177Lu] Lu-test peptide) for 1 hour at 37° C. (Table 8). Post incubation, the cells were pelleted and washed 2 times using cold PBS+1% BSA. The supernatant and washes were combined and counted together as “unbound fraction” in a gamma counter. The cells were then resuspended in 300 μL of 1% PBS+1% BSA and counted in the gamma counter as “bound fraction”.
In these Tables, “A” represents %≤25; “B” represents 25<%≤50; “C” represents %>50.

[3] = target: T2, DLL3 on SHP-77 cells; assay: 177Lu-peptide bound to SHP-77 cells, gamma counting; letter grade, key in paragraph 629
Protocol: as §1
(§2) Total uptake: Cells were incubated with 300 μL (0.8 μCi) of the incubation buffer (containing radiolabeled peptide [¹⁷⁷Lu] Lu-test peptide) for 1 hour at 37° C. (Table 8). Post incubation, the cells were pelleted and washed 2 times using cold PBS+1% BSA. The supernatant and washes were combined and counted together as “unbound fraction” in a gamma counter. The cells were then resuspended in 300 μL of 1% PBS+1% BSA and counted in the gamma counter as “bound fraction”.

[4] = target: T3, DLL3 on CT26.DLL3 cells; assay: 177Lu-peptide bound to CT26.DLL3 cells, gamma counting; letter grade, key in paragraph 629
Protocol: as §1, §2

Row | Molecule | Kd [1] [nM] | % Binding [2] | % Binding [3] [%] | % Binding [4] [%]
1 | CC[C@H](C)[C@H](NC(=O)[C@@H](NC(=O)[C@H](Cc1c[nH]c2ccccc12)NC(C)=O)[C@@H](C)O)C(=O)N[C@H]1CSCSC[C@@H](C(=O)N[C@@H](Cc2c[nH]c3ccccc23)C(=O)N2CCC[C@H]2C(=O)N[C@H](CCCCNC(=O)CN2CCN(CC(=O)O)CCN(CC(=O)O)CCN(CC(=O)O)CC2)C(N)=O)NC(=O)[C@H](CC(=O)O)NC(=O)[C@H](Cc2cnc[nH]2)NC(=O)[C@H](Cc2ccc3ccccc3c2)NC(=O)[C@H](CC(N)=O)NC(=O)[C@H](CC(N)=O)NC1=O [compound 165, Ac-WTI-C(1)-NN(2Nal)HD-C(1)-WP-[D-Lys(DOTA)]-NH2] (Ac-WTICNN[2Nal]HDCWP[dK](DOTA)-NH2; linker 4-10 via CH2) | < 1 | A (%≤25) |  | 
2 | CC[C@H](C)[C@H](NC(=O)[C@@H](NC(=O)[C@H](Cc1c[nH]c2ccccc12)NC(C)=O)[C@@H](C)O)C(=O)N[C@H]1CSSC[C@@H](C(=O)N[C@@H](Cc2c[nH]c3ccccc23)C(=O)N2CCC[C@H]2C(=O)N[C@@H](CCCCNC(=O)CN2CCN(CC(=O)O)CCN(CC(=O)O)CCN(CC(=O)O)CC2)C(N)=O)NC(=O)[C@H](CC(=O)O)NC(=O)[C@H](Cc2cnc[nH]2)NC(=O)[C@H](Cc2ccc3ccccc3c2)NC(=O)[C@H](CC(N)=O)NC(=O)[C@H](CC(N)=O)NC1=O [compound 166, Ac-W-T-I-C(3)-N-N-(2Nal)-H-D-C(3)-W-P-[L-Lys(DOTA)]-NH2] (Ac-WTICNN[2Nal]HDCWPK(DOTA)-NH2; disulfide 4-10) | < 1 | A (%≤25) |  | 
3 | Ac-WTICNN[2Nal]HDCWP[dK](DOTA)-NH2 (bridge 4-10; also: 177Lu chelated in DOTA, also called [177Lu]Lu-test peptide) [[177Lu]Lu-labelled Cpd No. 165] |  |  | ≤ 25 | 
4 | Ac-WTICNN[2Nal]HDCWPK(DOTA)-NH2 (disulfide 4-10; also: 177Lu chelated in DOTA, also called [177Lu]Lu-test peptide) [[177Lu]Lu-labelled Cpd No. 166] |  |  | ≤ 25 | 
5 | Ac-[Trp(5-F)]T[Nva(3-Et)]CNN[Phe(4-CF3)]HDC[Trp(7-aza)][Pro(trans-4-F)][dK](DOTA)-NH2 (disulfide 4-10; also: 177Lu complexed in the DOTA chelator) [[177Lu]Lu-labelled Cpd No. 146] |  |  | < 25 | 
6 | Ac-WTICNN[2Nal]HDCWP[dK](DOTA)-NH2 (disulfide 4-10; also: 177Lu in the DOTA chelator, also called [177Lu]Lu-test peptide) [[177Lu]Lu-labelled Cpd No. 75] |  |  | ≤ 25 | 
7 | Ac-WTICNNWHDCWP[dK](DOTA)-NH2 (disulfide 4-10; also: 177Lu chelated in DOTA, also called [177Lu]Lu-test peptide) [[177Lu]Lu-labelled Cpd No. 23] |  |  | ≤ 25 | ≤ 25
